According to publication doi:10.1101/2020.02.21.958371:
Substitutions are numbered along the chain they refer to.

T1: RMB1 MBD K50T (Arabidopsis thaliana, UniProt F4I209 1-81, K50T)
T1 sequence: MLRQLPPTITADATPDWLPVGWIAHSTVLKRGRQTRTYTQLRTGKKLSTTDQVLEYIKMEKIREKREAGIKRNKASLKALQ

T2: RMB1 MBD T49A (Arabidopsis thaliana, UniProt F4I209 1-81, T49A)
T2 sequence: T1 sequence with T49A, T50K

T3: RMB1 MBD (Arabidopsis thaliana, UniProt F4I209 1-81)
T3 sequence: T1 sequence with T50K

T4: RMB1 MBD W22G (Arabidopsis thaliana, UniProt F4I209 1-81, W22G)
T4 sequence: T1 sequence with W22G, T50K

T5: RMB1 MBD Y38F (Arabidopsis thaliana, UniProt F4I209 1-81, Y38F)
T5 sequence: T1 sequence with Y38F, T50K

B1: AT5G39160 mCG (dsDNA)
DNA 1: TTTGGTACGGACTTTTAGTTACAAGAGAGCATTTAAACAAAAATGACCGGTAGATGGAA
DNA 2: TTCCATCTACCGGTCATTTTTGTTTAAATGCTCTCTTGTAACTAAAAGTCCGTACCAAA
modifications: 5mC at forward 8 and 48; reverse strand line not in material, its methylation unknown
B2: AT5G39160 mCHG (dsDNA)
DNA 1: B1 DNA 1
DNA 2: B1 DNA 2
modifications: 5mC in CHG context; positions not in material (base sequence taken from Um probe)
B3: AT5G39160 mCHH (dsDNA)
DNA 1: B1 DNA 1
DNA 2: B1 DNA 2
modifications: 5mC at forward 12, 22, 30, 38; reverse unmethylated

Columns and labels:
Assay in all cases: MST
RMB1 MBD K50T = target: T1, RMB1 MBD K50T
RMB1 MBD T49A = target: T2, RMB1 MBD T49A
RMB1 MBD = target: T3, RMB1 MBD
RMB1 MBD W22G = target: T4, RMB1 MBD W22G
RMB1 MBD Y38F = target: T5, RMB1 MBD Y38F

Binder | binding result (RMB1 MBD K50T) | Kd (RMB1 MBD T49A) | Kd (RMB1 MBD) | Kd (RMB1 MBD W22G) | Kd (RMB1 MBD Y38F)
B1 | no binding | 3.58 ± 2.07 µM | 1.77 ± 0.7 µM | 13.3 ± 4.67 µM | 2.15 ± 0.75 µM
B2 | no binding | 4.11 ± 2.92 µM | 3.34 ± 0.27 µM |  | 5.16 ± 2 µM
B3 |  |  | 2.86 ± 1.21 µM |  | 
